From patent publication US20250353926A1 (ENLAZA THERAPEUTICS, published 2025)
Positions count from the first letter of the chain named. Names may count otherwise.

How the values were obtained:
[1] = molecular target: T1, PSMA expressed on target cells (PC3pip cells, high density; 22Rv1 cells, low density) (UniProt Q04609 1-750, limits assumed); experiment: cell-based or functional assay
[2] = molecular target: T1, PSMA expressed on target cells (PC3pip …); experiment: cell-based or functional assay; remark: listed apart in the source
[3] = molecular target: T1, PSMA expressed on target cells (PC3pip …); experiment: cell-based or functional assay; remark: listed apart in the source
[4] = molecular target: T1, PSMA expressed on target cells (PC3pip …); experiment: cell-based or functional assay; remark: listed apart in the source
[5] = molecular target: T2, biotin-labeled CD16a (Acro P/N CDA-H82E8) (human, UniProt P08637 17-208, biotin-labeled (site not stated)); experiment: BLI, biotin-labeled CD16a on streptavidin biosensors, pH 7.4
T2 construct: also called recombinant human CD16a; immobilized CD16a
T2 sequence (P08637 17-208 limits assumed): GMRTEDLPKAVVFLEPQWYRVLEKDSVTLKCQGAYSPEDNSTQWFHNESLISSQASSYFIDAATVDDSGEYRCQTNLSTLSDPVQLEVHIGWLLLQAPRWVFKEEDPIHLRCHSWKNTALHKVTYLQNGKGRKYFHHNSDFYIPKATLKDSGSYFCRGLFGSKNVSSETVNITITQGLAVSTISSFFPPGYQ

[6] = molecular target: T1, PSMA expressed on target cells (PC3pip …); experiment: cell-based or functional assay; remark: listed apart in the source
[7] = molecular target: T1, PSMA expressed on target cells (PC3pip …); experiment: cell-based or functional assay; remark: listed apart in the source
[8] = molecular target: T3, Biotinylated his-tagged human PSMA (human, UniProt Q04609 44-750, limits assumed, biotinylated (site not stated)); experiment: BLI, biotinylated his-tagged human PSMA on streptavidin sensors, pH 5.7
T3 construct: also called immobilized PSMA; not shown: his tag
T3 sequence (Q04609 44-750 limits assumed): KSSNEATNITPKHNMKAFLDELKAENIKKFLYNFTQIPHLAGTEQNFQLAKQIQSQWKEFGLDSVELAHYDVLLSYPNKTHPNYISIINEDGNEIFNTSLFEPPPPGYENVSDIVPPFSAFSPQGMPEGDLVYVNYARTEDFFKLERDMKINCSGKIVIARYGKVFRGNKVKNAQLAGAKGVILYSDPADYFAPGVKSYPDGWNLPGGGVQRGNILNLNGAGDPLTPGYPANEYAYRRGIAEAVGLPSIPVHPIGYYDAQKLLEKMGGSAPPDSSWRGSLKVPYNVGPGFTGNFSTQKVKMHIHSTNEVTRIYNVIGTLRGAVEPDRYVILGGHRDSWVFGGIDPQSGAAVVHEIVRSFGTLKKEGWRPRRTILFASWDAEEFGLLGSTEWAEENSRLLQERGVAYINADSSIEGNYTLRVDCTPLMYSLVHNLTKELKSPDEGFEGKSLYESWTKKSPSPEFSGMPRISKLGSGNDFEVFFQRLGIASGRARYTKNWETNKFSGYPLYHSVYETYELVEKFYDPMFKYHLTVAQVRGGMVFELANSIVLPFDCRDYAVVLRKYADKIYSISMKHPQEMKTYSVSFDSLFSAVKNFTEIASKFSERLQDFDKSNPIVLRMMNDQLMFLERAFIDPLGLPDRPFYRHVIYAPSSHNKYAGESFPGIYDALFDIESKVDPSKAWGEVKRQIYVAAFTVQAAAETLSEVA

[9] = molecular target: T1, PSMA expressed on target cells (PC3pip …); experiment: cell-based or functional assay; remark: listed apart in the source
[10] = molecular target: T3, Biotinylated his-tagged human PSMA; experiment: BLI, biotinylated his-tagged human PSMA on streptavidin sensors, pH 7.4
[11] = molecular target: T3, Biotinylated his-tagged human PSMA; experiment: BLI, biotinylated his-tagged human PSMA on streptavidin sensors, pH 7.4; covalent crosslinking; pH 7.4; apparent KD under covalent crosslinking
[12] = molecular target: T3, Biotinylated his-tagged human PSMA; experiment: BLI, biotinylated his-tagged human PSMA on streptavidin sensors, pH 7.4; covalent crosslinking
[13] = molecular target: T3, Biotinylated his-tagged human PSMA; experiment: BLI, biotinylated his-tagged human PSMA on streptavidin sensors, pH 7.4; non 1:1 binding (covalent crosslinking); pH 7.4; non 1:1 binding (crosslinking to PSMA)
[14] = molecular target: T2, biotin-labeled CD16a (Acro P/N …); experiment: BLI (Octet), biotin-CD16a on streptavidin sensors, dilutions from 200 nM to 3.125 nM

T1 sequence (Q04609 whole entry): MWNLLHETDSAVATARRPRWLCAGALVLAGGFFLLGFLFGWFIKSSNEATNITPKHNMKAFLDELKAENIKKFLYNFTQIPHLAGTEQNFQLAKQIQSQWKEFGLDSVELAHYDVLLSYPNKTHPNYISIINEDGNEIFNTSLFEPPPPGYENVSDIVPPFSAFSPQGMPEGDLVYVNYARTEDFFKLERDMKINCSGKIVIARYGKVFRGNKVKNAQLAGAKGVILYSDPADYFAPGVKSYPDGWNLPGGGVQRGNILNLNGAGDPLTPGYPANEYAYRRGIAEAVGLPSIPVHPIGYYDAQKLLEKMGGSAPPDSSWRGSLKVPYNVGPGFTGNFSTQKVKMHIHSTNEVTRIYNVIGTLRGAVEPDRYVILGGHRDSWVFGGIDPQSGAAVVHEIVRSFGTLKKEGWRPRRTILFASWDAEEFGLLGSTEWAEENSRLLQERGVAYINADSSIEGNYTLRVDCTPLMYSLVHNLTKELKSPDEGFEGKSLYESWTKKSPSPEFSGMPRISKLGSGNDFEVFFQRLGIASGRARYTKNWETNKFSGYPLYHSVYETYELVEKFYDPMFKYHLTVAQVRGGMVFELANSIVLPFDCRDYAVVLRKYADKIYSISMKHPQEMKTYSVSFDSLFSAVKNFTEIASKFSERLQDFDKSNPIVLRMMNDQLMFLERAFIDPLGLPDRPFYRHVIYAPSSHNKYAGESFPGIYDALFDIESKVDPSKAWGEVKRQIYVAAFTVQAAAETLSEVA

B1: C31 (bispecific antibody)
chain: QVQLQESGGGSVEAGGSLRLSCARSGWPYSTYSMNWFRQAPGKEREAVAGISSTMSGIIFAESKAGQFTISQDNAKNTVYLQMNNLKPEDTAIYYCAARRYFSLSSSSDDFDYWGQGTQVTVSSGGGGSGGGGSGGGGSGGGGSEVQLVESGGGPVQAGGSLRLSCAASGRTYRGYSMGWFRQAPGKEREFVAAIVWSGGNTYYEDSVKGRFTISRDNAKNTMYLQMTSLKPEDSATYYCAAKIRPYIFKIAGQYDYWGQGTLVTVSSAAAYPYDVPDYGSSPSTPPTPSPSTPPHHHHHH
- EC50; T-cell luciferase reporter assay with PC3pip target cells, 6 hr [1]: 5.33 nM

B2: C34 (bispecific antibody)
chain: QVQLQESGGGSVEAGGSLRLSCARSGWPYSTYSMNWFRQAPGKEREAVAGISSTMSGIIFAESKAGQFTISQDNAKNTVYLQMNNLKPEDTAIYYCAARRXFSLSSSSDDFDYWGQGTQVTVSSGGGGSGGGGSGGGGSGGGGSEVQLVESGGGLVQPGGSLRLSCVASGDVHKINFLGWYRQAPGKEREKVAHISIGDQTDYADSAKGRFTISRDESKNMVYLQMNSLKPEDTAVYFCRAFSRIYPYDYWGQGTLVTVSSAAAYPYDVPDYGSSPSTPPTPSPSTPPHHHHHH
modifications: FSY (fluorosulfonyltyrosine) at the position printed X in SEQ ID NO: 49 (position 101 of the anti-PSMA sdAb domain)
- EC50; T-cell luciferase reporter assay with PC3pip target cells, 6 hr [1]: 1.42 nM
- fold potency against C33; T-cell luciferase reporter assay, PC3pip [1]: 21.9 fold

B3: C33 (bispecific antibody)
chain: B2 chain with X101Y
- EC50; T-cell luciferase reporter assay with PC3pip target cells, 6 hr [1]: 31.1 nM

B4: C25 (C37-L3-C36) (bispecific antibody)
chain: EVQLVESGGGLVQPGESLTLSCVVAGSIFSFAMSWYRQAPGKERELVARIGSDDRVTYADSVKGRFTISRDNIKRTAGLQMNSLKPEDTAVYYCNAQTDLRDWTVREYWGQGTQVTVSSGGGGSGGGGSGGGGSGGGGSQVQLQESGGGSVEAGGSLRLSCARSGWPYSTYSMNWFRQAPGKEREAVAGISSTMSGIIFAESKAGQFTISQDNAKNTVYLQMNNLKPEDTAIYYCAARRYFSLSSSSDDFDYWGQGTQVTVSSAAAYPYDVPDYGSSPSTPPTPSPSTPPHHHHHH
notes: also called C25 (TYR); non-covalent construct C25
- EC50 [nM]; NK cell-mediated killing of PC3pip cells, 5 h washout, 20 h incubation [2]: 26.2 nM
- EC50; ADCC reporter assay, 22Rv1 24 h continual [3]: 12.1 nM
- EC50; ADCC reporter assay, PC3pip 4 h washout, 24 h endpoint [4]: 0.141 nM
- Kd [5]: 1.11 nM
- koff [5]: 0.000152 s⁻¹
- kon [5]: 137000 M⁻¹ s⁻¹
- EC50 [nM]; primary human NK cell-mediated killing of PC3pip cells, no washout, 20 h incubation [6]: 7.02 nM
- EC50; ADCC luciferase reporter assay (Jurkat CD16a V158 reporter cells), PC3pip 24 h continuous [7]: 9.2 nM
- Kd [8]: 1570 nM
- koff [8]: 0.0483 s⁻¹
- kon [8]: 30800 M⁻¹ s⁻¹
- EC50; ADCC reporter assay, 22Rv1 4 h washout, 24 h endpoint [9]: 62.6 nM
- Kd [10]: 1160 nM
- koff [10]: 0.03 s⁻¹
- kon [10]: 25900 M⁻¹ s⁻¹

B5: C22 (C37-L3-C35) (bispecific antibody)
chain: B4 chain with Y240X
modifications: FSY (fluorosulfonyltyrosine) at the position printed X in SEQ ID NO: 37 (position 101 of the anti-PSMA sdAb domain)
notes: anti-CD16a sdAb C37 - 4x(G4S) - anti-PSMA sdAb-FSY C35; entry holds HA tag, SP tag and His6; also called C22 (FSY); FSY-containing bispecific construct
- EC50 [nM]; NK cell-mediated killing of PC3pip cells, 5 h washout, 20 h incubation [2]: 0.188 nM
- Kd [11]: < 1 nM
- EC50; ADCC reporter assay, 22Rv1 24 h continual [3]: 0.54 nM
- EC50; ADCC reporter assay, PC3pip 4 h washout, 24 h endpoint [4]: 0.667 nM
- koff [12]: < 1e-07 s⁻¹
- Kd [5]: 1.48 nM
- koff [5]: 8.69e-05 s⁻¹
- kon [5]: 58800 M⁻¹ s⁻¹
- kon [13]: 12800 M⁻¹ s⁻¹
- fold potency against C25; NK cell-mediated killing of PC3pip cells, 5 hr incubation and washout [1]: 140 fold
- fold potency against C25; NK cell-mediated killing of PC3pip cells, test article present throughout [1]: 106 fold
- EC50 [nM]; primary human NK cell-mediated killing of PC3pip cells, no washout, 20 h incubation [6]: 0.066 nM
- EC50; ADCC luciferase reporter assay (Jurkat CD16a V158 reporter cells), PC3pip 24 h continuous [7]: 0.219 nM
- Kd [8]: ≤ 1140 nM
- koff [8]: 0.0465 s⁻¹
- kon [8]: 40700 M⁻¹ s⁻¹
- EC50; ADCC reporter assay, 22Rv1 4 h washout, 24 h endpoint [9]: 3.19 nM

B6: C27 (bispecific antibody)
chain: EVQLVESGGGPVQAGGSLRLSCAASGRTYRGYSMGWFRQAPGKEREFVAAIVWSGGNTYYEDSVKGRFTISRDNAKNTMYLQMTSLKPEDSATYYCAAKIRPYIFKIAGQYDYWGQGTLVTVSSGGGGSGGGGSGGGGSGGGGSQVQLQESGGGSVEAGGSLRLSCARSGWPYSTYSMNWFRQAPGKEREAVAGISSTMSGIIFAESKAGQFTISQDNAKNTVYLQMNNLKPEDTAIYYCAARRXFSLSSSSDDFDYWGQGTQVTVSSAAAYPYDVPDYGSSPSTPPTPSPSTPPHHHHHH
modifications: FSY (fluorosulfonyltyrosine) at the position printed X in SEQ ID NO: 42 (position 101 of the anti-PSMA sdAb domain)
- EC50; T-cell luciferase reporter assay with PC3pip target cells, 6 hr [1]: 0.59 nM
- fold efficacy against the commercial CD3-PSMA bispecific antibody; T-cell luciferase reporter assay, PC3pip [1]: 1.2 fold
- fold potency against C26; T-cell luciferase reporter assay, PC3pip [1]: 12.7 fold
- fold potency against the commercial CD3-PSMA bispecific antibody; T-cell luciferase reporter assay, PC3pip [1]: 1.4 fold

B7: C26 (bispecific antibody)
chain: B6 chain with X245Y
- EC50; T-cell luciferase reporter assay with PC3pip target cells, 6 hr [1]: 7.4 nM

B8: C30 (bispecific antibody)
chain: EVQLVESGGGLVQPGGSLRLSCVASGDVHKINFLGWYRQAPGKEREKVAHISIGDQTDYADSAKGRFTISRDESKNMVYLQMNSLKPEDTAVYFCRAFSRIYPYDYWGQGTLVTVSSGGGGSGGGGSGGGGSGGGGSQVQLQESGGGSVEAGGSLRLSCARSGWPYSTYSMNWFRQAPGKEREAVAGISSTMSGIIFAESKAGQFTISQDNAKNTVYLQMNNLKPEDTAIYYCAARRXFSLSSSSDDFDYWGQGTQVTVSSAAAYPYDVPDYGSSPSTPPTPSPSTPPHHHHHH
modifications: FSY (fluorosulfonyltyrosine) at the position printed X in SEQ ID NO: 45 (position 101 of the anti-PSMA sdAb domain)
- EC50; T-cell luciferase reporter assay with PC3pip target cells, 6 hr [1]: 0.51 nM
- fold potency against C29; T-cell luciferase reporter assay, PC3pip [1]: 11.8 fold
- fold potency against the commercial CD3-PSMA bispecific antibody; T-cell luciferase reporter assay, PC3pip [1]: 1.6 fold

B9: C29 (bispecific antibody)
chain: B8 chain with X238Y
- EC50; T-cell luciferase reporter assay with PC3pip target cells, 6 hr [1]: 5.98 nM

B10: C28 (bispecific antibody)
chain: EVQLVESGGGLVQPGGSLRLSCAASGDIYKSFDMGWYRQAPGKQRDLVAVIGSRGNNRGRTNYADSVKGRFTISRDGTGNTVYLLMNKLRPEDTAIYYCNTAPLVAGRPWGRGTLVTVSSGGGGSGGGGSGGGGSGGGGSQVQLQESGGGSVEAGGSLRLSCARSGWPYSTYSMNWFRQAPGKEREAVAGISSTMSGIIFAESKAGQFTISQDNAKNTVYLQMNNLKPEDTAIYYCAARRYFSLSSSSDDFDYWGQGTQVTVSSAAAYPYDVPDYGSSPSTPPTPSPSTPPHHHHHH
- EC50; T-cell luciferase reporter assay with PC3pip target cells, 6 hr [1]: 14.8 nM

B11: C37 (anti-CD16a sdAb) (VHH)
VHH: EVQLVESGGGLVQPGESLTLSCVVAGSIFSFAMSWYRQAPGKERELVARIGSDDRVTYADSVKGRFTISRDNIKRTAGLQMNSLKPEDTAVYYCNAQTDLRDWTVREYWGQGTQVTVSS
notes: also called CD16a sdAb domain alone; monospecific anti-CD16a sdAb
- binding result [14]: binds

B12: C32 (bispecific antibody)
chain: QVQLQESGGGSVEAGGSLRLSCARSGWPYSTYSMNWFRQAPGKEREAVAGISSTMSGIIFAESKAGQFTISQDNAKNTVYLQMNNLKPEDTAIYYCAARRYFSLSSSSDDFDYWGQGTQVTVSSGGGGSGGGGSGGGGSGGGGSEVQLVESGGGLVQPGGSLRLSCAASGDIYKSFDMGWYRQAPGKQRDLVAVIGSRGNNRGRTNYADSVKGRFTISRDGTGNTVYLLMNKLRPEDTAIYYCNTAPLVAGRPWGRGTLVTVSSAAAYPYDVPDYGSSPSTPPTPSPSTPPHHHHHH
- EC50; T-cell luciferase reporter assay with PC3pip target cells, 6 hr [1]: 1.42 nM
